We go through seven molecules from article PMC3273815.

Series [1] deals with BcMCM 501–1028 (helicase domain) (Bacillus cereus (integrated prophage)). Briefly: negative-stain electron microscopy.
In series [2] the target is BcMCM presensor I β-hairpin mutant (R737A) (Bacillus cereus (integrated prophage)). Briefly: SEC. (Size exclusion chromatography separates by hydrodynamic size, large species first.)
Series [3] addresses BcMCM Walker B mutant (D711A) (Bacillus cereus (integrated prophage)). Nature of the series: SEC.
The target of series [4] is T1, BcMCM wild type (Bacillus cereus (prophage), UniProt Q81EV1 1-1028).
T1 sequence: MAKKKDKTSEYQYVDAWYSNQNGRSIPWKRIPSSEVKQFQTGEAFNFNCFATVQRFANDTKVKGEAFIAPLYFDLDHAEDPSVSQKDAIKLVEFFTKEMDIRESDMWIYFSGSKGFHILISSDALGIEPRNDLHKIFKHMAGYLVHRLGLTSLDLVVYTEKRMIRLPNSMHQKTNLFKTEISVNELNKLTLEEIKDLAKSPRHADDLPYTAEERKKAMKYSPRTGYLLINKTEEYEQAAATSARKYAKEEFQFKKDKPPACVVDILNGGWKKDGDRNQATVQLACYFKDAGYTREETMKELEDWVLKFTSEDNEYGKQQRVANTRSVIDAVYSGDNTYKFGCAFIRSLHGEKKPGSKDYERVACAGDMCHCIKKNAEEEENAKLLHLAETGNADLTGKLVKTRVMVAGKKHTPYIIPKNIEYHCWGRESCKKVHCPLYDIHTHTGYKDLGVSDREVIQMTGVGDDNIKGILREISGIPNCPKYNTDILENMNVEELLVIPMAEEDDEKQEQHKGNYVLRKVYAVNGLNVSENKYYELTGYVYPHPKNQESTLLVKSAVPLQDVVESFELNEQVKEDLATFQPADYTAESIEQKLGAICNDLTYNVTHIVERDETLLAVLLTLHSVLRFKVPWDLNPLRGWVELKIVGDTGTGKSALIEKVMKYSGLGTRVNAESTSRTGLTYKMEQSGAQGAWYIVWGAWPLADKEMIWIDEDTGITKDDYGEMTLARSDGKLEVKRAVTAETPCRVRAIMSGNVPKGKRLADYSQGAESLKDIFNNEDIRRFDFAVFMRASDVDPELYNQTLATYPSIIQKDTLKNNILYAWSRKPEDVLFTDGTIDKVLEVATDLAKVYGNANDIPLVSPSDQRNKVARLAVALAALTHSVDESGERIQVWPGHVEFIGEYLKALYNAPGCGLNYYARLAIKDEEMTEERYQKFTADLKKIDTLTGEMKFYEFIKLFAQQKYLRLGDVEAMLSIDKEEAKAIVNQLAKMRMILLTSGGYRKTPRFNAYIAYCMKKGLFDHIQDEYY
Briefly: EMSA. On the technique in general: In EMSA bound probe runs differently from free probe, usually more slowly.

The target in series [5] is T1, BcMCM wild type. Briefly: pull-down.

By stoichiometry N is commonly meant a count of units in the complex or per binding partner. As for “BcMCM 501–1028 (helicase domain) (domain or fragment)”, the stoichiometry N in series [1] is 6.
“BcMCM presensor I β-hairpin mutant (R737A) (enzyme)” displayed a stoichiometry N in series [2] of 6.
Regarding BcMCM Walker B mutant (D711A) (enzyme), the stoichiometry N in series [3] was 6.

B1: bubble (dsDNA)
DNA 1: ACTGGCCGTCGTTTTACAACGTCGTGACTGGGAAAACCCTGGCGTTACCCAACTTAATCG
DNA 2: CGATTAAGTTGGGTAACGGGTCCCAAAAGGGTCAGTGCTGCATGTAAAACGACGGCCAGT
Regarding B1, in the series with BcMCM wild type [4], the binding result was “binds”.

B2: template-primer, 3'-end oligo (mixed)
DNA 1: B1 DNA 1
DNA 2: CGATTAAGTTGGGTAACGCC
Take B2: the binding result with BcMCM wild type [4] was “binds”.

B3: template-primer, 5'-end oligo (mixed)
DNA 1: B1 DNA 1
DNA 2: GTTGTAAAACGACGGCCAGT
Consider B3, for which, in the series with BcMCM wild type [4], the binding result was “binds”.

B4: biotin-EcoRI-(dT)50 tailed duplex (mixed)
DNA 1: TCCCCCGAATTCCCCCCTTTTTTTTTTTTTTTTTTTTTTTTTTTTTTTTTTTTTTTTTTTTTTTTTT
DNA 2: GGGGGGAATTCGGGGG
modifications: 5' biotin on strand 1
On to B4, for which the binding result with BcMCM wild type [5] was “binds”.
